Reference: patent publication US20200165325A1

Columns and labels:
[1] = target: HIV-1 Env of strain CNE17 (HIV-1)
[2] = target: HIV-1 Env of strain 3016.v5.c45 (HIV-1)
[3] = target: HIV-1 Env of strain ZM135M.PL10a (HIV-1)
[4] = target: HIV-1 Env of strain RHPA4259.7 (HIV-1)
[5] = target: HIV-1 Env of strain 3718.v3.c11 (HIV-1)
[6] = target: HIV-1 Env of strain WEAU_d15_410_787 (HIV-1)
[7] = target: HIV-1 Env of strain CNE30 (HIV-1)
[8] = target: HIV-1 Env of strain 62357_14_D3_4589 (HIV-1)
[9] = target: HIV-1 Env of strain C3347.c11 (HIV-1)
[10] = target: HIV-1 Env of strain 3415.v1.c1 (HIV-1)
[11] = target: HIV-1 Env of strain Q769.d22 (HIV-1)
[12] = target: HIV-1 Env of strain TRO.11 (HIV-1)
[13] = target: HIV-1 Env of strain Ce0682_E4 (HIV-1)
[14] = target: HIV-1 Env of strain T278-50 (HIV-1)
[15] = target: HIV-1 Env of strain 1056_10_TA11_1826 (HIV-1)
[16] = target: HIV-1 Env of strain C1080.c03 (HIV-1)
[17] = target: HIV-1 Env of strain CNE58 (HIV-1)
[18] = target: HIV-1 Env of strain 1054_07_TC4_1499 (HIV-1)
[19] = target: HIV-1 Env of strain Ce2010_F5 (HIV-1)
[20] = target: HIV-1 Env of strain ZM214M.PL15 (HIV-1)
[21] = target: HIV-1 Env of strain 6535.3 (HIV-1)
[22] = target: HIV-1 Env of strain T257-31 (HIV-1)
[23] = target: HIV-1 Env of strain 703357.C02 (HIV-1)
[24] = target: HIV-1 Env of strain ZM247v1(Rev-) (HIV-1)
[25] = target: HIV-1 Env of strain R1166.c01 (HIV-1)
[26] = target: HIV-1 Env of strain 211-9 (HIV-1)
[27] = target: HIV-1 Env of strain P1981_C5_3 (HIV-1)
[28] = target: HIV-1 Env of strain ZM109F.PB4 (HIV-1)
[29] = target: HIV-1 Env of strain THRO4156.18 (HIV-1)
[30] = target: HIV-1 Env of strain ZM249M.PL1 (HIV-1)
[31] = target: HIV-1 Env of strain 1006_11_C3_1601 (HIV-1)
[32] = target: HIV-1 Env of strain Ce0393_C3 (HIV-1)
[33] = target: HIV-1 Env of strain T250-4 (HIV-1)
[34] = target: HIV-1 Env of strain WITO4160.33 (HIV-1)
[35] = target: HIV-1 Env of strain 620345.c01 (HIV-1)
[36] = target: HIV-1 Env of strain Du172.17 (HIV-1)
[37] = target: HIV-1 Env of strain Q259.d2.17 (HIV-1)
[38] = target: HIV-1 Env of strain 928-28 (HIV-1)
[39] = target: HIV-1 Env of strain 89-F1_2_25 (HIV-1)
[40] = target: HIV-1 Env of strain ZM53M.PB12 (HIV-1)
[41] = target: HIV-1 Env of strain HIV-16845-2.22 (HIV-1)
[42] = target: HIV-1 Env of strain QH0692.42 (HIV-1)
[43] = target: HIV-1 Env of strain R2184.c04 (HIV-1)
[44] = target: HIV-1 Env of strain TRJO4551.58 (HIV-1)
[45] = target: HIV-1 Env of strain P0402_c2_11 (HIV-1)
[46] = target: HIV-1 Env of strain 3301.v1.c24 (HIV-1)
[47] = target: HIV-1 Env of strain Ce2060_G9 (HIV-1)
[48] = target: HIV-1 Env of strain REJO4541.67 (HIV-1)
[49] = target: HIV-1 Env of strain CNE20 (HIV-1)
[50] = target: HIV-1 Env of strain C2101.c01 (HIV-1)
[51] = target: HIV-1 Env of strain Du422.1 (HIV-1)
[52] = target: HIV-1 Env of strain ZM233M.PB6 (HIV-1)
[53] = target: HIV-1 Env of strain ZM197M.PB7 (HIV-1)
[54] = target: HIV-1 Env of strain CNE53 (HIV-1)
[55] = target: HIV-1 Env of strain T255-34 (HIV-1)
[56] = target: HIV-1 Env of strain Q23.17 (HIV-1)
[57] = target: HIV-1 Env of strain 231965.c01 (HIV-1)

Substance: NIH45-46 G54F IgG (antibody)
- In vitro neutralization IC80 [1]: 0.287 µg/mL
- In vitro neutralization IC80 [2]: 37 µg/mL
- In vitro neutralization IC80 [3]: 0.43 µg/mL
- In vitro neutralization IC80 [4]: 0.02 µg/mL
- In vitro neutralization IC80 [5]: 4.62 µg/mL
- In vitro neutralization IC80 [6]: 0.004 µg/mL
- In vitro neutralization IC80 [7]: 0.348 µg/mL
- In vitro neutralization IC80 [8]: 0.14 µg/mL
- In vitro neutralization IC80 [9]: 0.059 µg/mL
- In vitro neutralization IC80 [10]: 0.029 µg/mL
- In vitro neutralization IC80 [11]: 0.023 µg/mL
- In vitro neutralization IC80 [12]: 0.3 µg/mL
- In vitro neutralization IC80 [13]: 0.056 µg/mL
- In vitro neutralization IC80 [14]: > 50 µg/mL
- In vitro neutralization IC80 [15]: 0.283 µg/mL
- In vitro neutralization IC80 [16]: 2.26 µg/mL
- In vitro neutralization IC80 [17]: 0.11 µg/mL
- In vitro neutralization IC80 [18]: 0.283 µg/mL
- In vitro neutralization IC80 [19]: 0.186 µg/mL
- In vitro neutralization IC80 [20]: 0.3 µg/mL
- In vitro neutralization IC80 [21]: 0.27 µg/mL
- In vitro neutralization IC80 [22]: 0.51 µg/mL
- In vitro neutralization IC80 [23]: > 50 µg/mL
- In vitro neutralization IC80 [24]: 2.45 µg/mL
- In vitro neutralization IC80 [25]: 1.32 µg/mL
- In vitro neutralization IC80 [26]: > 50 µg/mL
- In vitro neutralization IC80 [27]: 0.11 µg/mL
- In vitro neutralization IC80 [28]: 0.17 µg/mL
- In vitro neutralization IC80 [29]: 3.01 µg/mL
- In vitro neutralization IC80 [30]: 0.016 µg/mL
- In vitro neutralization IC80 [31]: 0.024 µg/mL
- In vitro neutralization IC80 [32]: 0.173 µg/mL
- In vitro neutralization IC80 [33]: > 50 µg/mL
- In vitro neutralization IC80 [34]: 0.14 µg/mL
- In vitro neutralization IC80 [35]: > 50 µg/mL
- In vitro neutralization IC80 [36]: > 50 µg/mL
- In vitro neutralization IC80 [37]: 0.036 µg/mL
- In vitro neutralization IC80 [38]: 0.41 µg/mL
- In vitro neutralization IC80 [39]: > 50 µg/mL
- In vitro neutralization IC80 [40]: 0.23 µg/mL
- In vitro neutralization IC80 [41]: 2.75 µg/mL
- In vitro neutralization IC80 [42]: 1.65 µg/mL
- In vitro neutralization IC80 [43]: 0.054 µg/mL
- In vitro neutralization IC80 [44]: 0.08 µg/mL
- In vitro neutralization IC80 [45]: 0.047 µg/mL
- In vitro neutralization IC80 [46]: 0.011 µg/mL
- In vitro neutralization IC80 [47]: 0.085 µg/mL
- In vitro neutralization IC80 [48]: 0.028 µg/mL
- In vitro neutralization IC80 [49]: 3.91 µg/mL
- In vitro neutralization IC80 [50]: 0.42 µg/mL
- In vitro neutralization IC80 [51]: > 50 µg/mL
- In vitro neutralization IC80 [52]: 0.99 µg/mL
- In vitro neutralization IC80 [53]: 0.23 µg/mL
- In vitro neutralization IC80 [54]: 0.024 µg/mL
- In vitro neutralization IC80 [55]: 0.198 µg/mL
- In vitro neutralization IC80 [56]: 0.07 µg/mL
- In vitro neutralization IC80 [57]: 0.062 µg/mL
